Our source for the Kd values is publication PMC6420652, “Developing a novel FRET assay, targeting the binding between Antizyme-AZIN” (Scientific Reports, 2019).

Holding throughout (assay): FRET or BRET; Clover fusion protein constant at 50 nM, mRuby2 fusion of antizyme titrated; TBS pH 7.4 + 0.15% Tween-20, 1 hour at room temperature; plate reader, fit of donor quenching
Common to all, as to conditions: both partners purified

Assay [1] addresses T1, ODC-N327A (Clover fusion protein) (human, UniProt P11926 1-461, N327A).
T1 construct: human ornithine decarboxylase (hODC1) with N327A; As m5 with the point mutation; source: bacterial expression vector (pBAD), purified recombinant protein
T1 sequence (looked up): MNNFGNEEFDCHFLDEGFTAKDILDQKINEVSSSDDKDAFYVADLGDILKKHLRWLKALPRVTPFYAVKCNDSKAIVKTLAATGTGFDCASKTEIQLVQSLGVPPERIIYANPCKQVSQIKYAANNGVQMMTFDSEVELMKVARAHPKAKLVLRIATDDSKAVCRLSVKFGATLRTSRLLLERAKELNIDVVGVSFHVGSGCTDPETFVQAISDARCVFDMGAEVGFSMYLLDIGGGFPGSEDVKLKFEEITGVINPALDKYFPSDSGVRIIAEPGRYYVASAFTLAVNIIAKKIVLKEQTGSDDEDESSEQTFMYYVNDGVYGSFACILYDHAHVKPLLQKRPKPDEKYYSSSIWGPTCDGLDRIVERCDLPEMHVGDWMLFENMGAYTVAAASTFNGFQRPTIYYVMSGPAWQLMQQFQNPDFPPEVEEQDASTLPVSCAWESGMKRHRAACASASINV

The target in assay [2] is T2, Clover-AZIN (antizyme inhibitor with an N-terminal Clover tag) (human, UniProt O14977 1-448).
T2 construct: The vector has a TEV protease site after the His tag; also called hAZIN1; source: bacterial expression vector (pBAD), purified recombinant protein; not shown: Clover, N-terminal, kept
T2 sequence (looked up): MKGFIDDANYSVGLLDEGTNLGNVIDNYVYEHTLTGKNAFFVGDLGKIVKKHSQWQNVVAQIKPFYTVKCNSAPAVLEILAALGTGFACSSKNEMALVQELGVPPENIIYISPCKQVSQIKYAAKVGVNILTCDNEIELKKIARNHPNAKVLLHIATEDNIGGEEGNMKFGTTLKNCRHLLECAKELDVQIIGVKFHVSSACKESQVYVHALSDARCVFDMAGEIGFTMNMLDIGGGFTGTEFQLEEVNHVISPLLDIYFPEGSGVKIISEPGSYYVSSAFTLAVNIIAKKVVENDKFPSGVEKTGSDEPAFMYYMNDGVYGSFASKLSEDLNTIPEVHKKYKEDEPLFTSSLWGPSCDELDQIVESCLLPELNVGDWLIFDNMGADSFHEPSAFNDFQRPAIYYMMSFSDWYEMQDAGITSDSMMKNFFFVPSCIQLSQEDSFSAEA

In assay [3] the target is T3, ODC-Clover fusion protein (ornithine decarboxylase), wild type (human, UniProt P11926 1-461).
T3 construct: human ornithine decarboxylase (hODC1); The legend says 'ODC-Clover fusion proteins'; the methods speak of N-terminal fluorescent fusion proteins of hODC1, so Clover is probably N-terminal; also called hODC1; source: bacterial expression vector (pBAD), purified recombinant protein
T3 sequence (looked up): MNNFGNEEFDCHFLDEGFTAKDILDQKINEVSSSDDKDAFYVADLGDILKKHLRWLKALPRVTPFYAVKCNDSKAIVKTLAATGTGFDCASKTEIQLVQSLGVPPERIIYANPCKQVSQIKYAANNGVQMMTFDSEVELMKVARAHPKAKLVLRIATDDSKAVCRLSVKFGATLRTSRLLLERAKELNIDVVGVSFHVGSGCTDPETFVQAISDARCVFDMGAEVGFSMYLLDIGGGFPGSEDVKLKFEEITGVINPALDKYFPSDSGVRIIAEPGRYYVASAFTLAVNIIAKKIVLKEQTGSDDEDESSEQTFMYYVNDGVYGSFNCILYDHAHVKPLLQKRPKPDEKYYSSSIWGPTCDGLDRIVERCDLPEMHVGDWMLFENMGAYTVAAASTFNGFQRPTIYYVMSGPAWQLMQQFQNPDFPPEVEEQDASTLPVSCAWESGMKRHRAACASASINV

Assay [4] concerns the target T4, ODC-Y331S (Clover fusion protein) (human, UniProt P11926 1-461, Y331S).
T4 construct: human ornithine decarboxylase (hODC1) with Y331S; As m5 with the point mutation; source: bacterial expression vector (pBAD), purified recombinant protein
T4 sequence (looked up): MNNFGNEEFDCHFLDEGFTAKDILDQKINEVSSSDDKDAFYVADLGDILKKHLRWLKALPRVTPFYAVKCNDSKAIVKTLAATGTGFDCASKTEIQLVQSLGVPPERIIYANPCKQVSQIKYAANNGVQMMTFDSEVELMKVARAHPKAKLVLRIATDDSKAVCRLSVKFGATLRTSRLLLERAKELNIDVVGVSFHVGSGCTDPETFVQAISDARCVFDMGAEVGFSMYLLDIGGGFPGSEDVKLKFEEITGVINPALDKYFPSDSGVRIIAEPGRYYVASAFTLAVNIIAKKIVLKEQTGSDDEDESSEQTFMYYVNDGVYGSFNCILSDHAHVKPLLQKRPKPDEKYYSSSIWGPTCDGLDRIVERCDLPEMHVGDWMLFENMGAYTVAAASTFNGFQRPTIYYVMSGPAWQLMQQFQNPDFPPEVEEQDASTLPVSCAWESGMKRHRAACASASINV

One may read the Kd as the equilibrium constant for the complex coming apart.

B1: antizyme-mRuby2 (antizyme with a C-terminal mRuby2 tag) (natural protein)
chain: not shown
notes: human antizyme 1 (OAZ1), codon-optimized synthetic gene; An HRV 3C protease site lies between antizyme and mRuby2 (used for the cleavage control); also called AZ-mRuby2; AZ; source: bacterial expression vector (pBAD), gene codon optimized for E. coli, purified recombinant protein; not shown: mRuby2, C-terminal, kept
Turning to B1, the Kd in assay [1] was determined as 192 nM; in assay [2] it was 22 nM; in assay [3] it was 508 nM; in assay [4] it was 277 nM.
